± gives the standard deviation of the averaged measurements.
Columns and labels:
MCF7 = experiment: percentage of EdU-negative (G0-arrested) nuclei per well, 72 h; higher = more G0 arrest; details: reference: sequence is the full UniProt precursor, the tested protein was the secreted form or ectodomain
hTERT-HMEC = experiment: as above; details: reference: sequence is the full UniProt precursor, the tested protein was the secreted form or ectodomain
[1] = protein concentration 0.027265 µM
[2] = protein concentration 0.27265 µM
[3] = protein concentration 0.03125 µM
[4] = protein concentration 0.3125 µM
[5] = protein concentration 0.0225 µM
[6] = protein concentration 0.0260325 µM
[7] = protein concentration 0.260325 µM
[8] = protein concentration 0.00925 µM
[9] = protein concentration 0.0925 µM
[10] = protein concentration 0.0145714 µM
[11] = protein concentration 0.145714 µM
[12] = protein concentration 0.0182675 µM
[13] = protein concentration 0.182675 µM
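Also: secreted proteins added to cultured cells, EdU pulse at the end, nuclei found by Hoechst imaging, EdU status from nuclear versus surrounding ring intensity ratio, PBS as neutral control.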

## MPDTMLPACFLGLLAFSSACYFQNCPRGGKRAMSDLELRQCLPCGPGGKGRCFGPSICCADELGCFVGTAEALRCQEENYLPSPCQSGQKACGSGGRCAAFGVCCNDESCVTEPECREGFHRRARASDRSNATQLDGPAGALLLRLVQLAGAPEPFEPAQPDAY
MCF7; [1]
  percentage of EdU-negative: 24 ± 0.36%
MCF7; [2]
  percentage of EdU-negative: 24.4 ± 0.13%
hTERT-HMEC; [1]
  percentage of EdU-negative: 5.39 ± 0.55%
hTERT-HMEC; [2]
  percentage of EdU-negative: 5.52 ± 1.1%

## MWPLWRLVSLLALSQALPFEQRGFWDFTLDDGPFMMNDEEASGADTSGVLDPDSVTPTYSAMCPFGCHCHLRVVQCSDLGLKSVPKEISPDTTLLDLQNNDISELRKDDFKGLQHLYALVLVNNKISKIHEKAFSPLRKLQKLYISKNHLVEIPPNLPSSLVELRIHDNRIRKVPKGVFSGLRNMNCIEMGGNPLENSGFEPGAFDGLKLNYLRISEAKLTGIPKDLPETLNELHLDHNKIQAIELEDLLRYSKLYRLGLGHNQIRMIENGSLSFLPTLRELHLDNNKLARVPSGLPDLKLLQVVYLHSNNITKVGVNDFCPMGFGVKRAYYNGISLFNNPVPYWEVQPATFRCVTDRLAIQFGNYKK
MCF7; [3]
  percentage of EdU-negative: 25.3 ± 1.7%
MCF7; [4]
  percentage of EdU-negative: 25.1 ± 3.1%
hTERT-HMEC; [3]
  percentage of EdU-negative: 4.62 ± 0.74%
hTERT-HMEC; [4]
  percentage of EdU-negative: 7.32 ± 0.21%

## MAAHLLPICALFLTLLDMAQGFRGPLLPNRPFTTVWNANTQWCLERHGVDVDVSVFDVVANPGQTFRGPDMTIFYSSQLGTYPYYTPTGEPVFGGLPQNASLIAHLARTFQDILAAIPAPDFSGLAVIDWEAWRPRWAFNWDTKDIYRQRSRALVQAQHPDWPAPQVEAVAQDQFQGAARAWMAGTLQLGRALRPRGLWGFYGFPDCYNYDFLSPNYTGQCPSGIRAQNDQLGWLWGQSRALYPSIYMPAVLEGTGKSQMYVQHRVAEAFRVAVAAGDPNLPVLPYVQIFYDTTNHFLPLDELEHSLGESAAQGAAGVVLWVSWENTRTKESCQAIKEYMDTTLGPFILNVTSGALLCSQALCSGHGRCVRRTSHPKALLLLNPASFSIQLTPGGGPLSLRGALSLEDQAQMAVEFKCRCYPGWQAPWCERKSMW
MCF7; [5]
  percentage of EdU-negative: 26.3 ± 0.86%
MCF7; protein concentration 0.225 µM
  percentage of EdU-negative: 26 ± 1.1%
hTERT-HMEC; [5]
  percentage of EdU-negative: 5.35 ± 0.22%
hTERT-HMEC; protein concentration 0.225 µM
  percentage of EdU-negative: 5.55 ± 0.18%

## MGGPRALLAALWALEAAGTAALRIGAFNIQSFGDSKVSDPACGSIIAKILAGYDLALVQEVRDPDLSAVSALMEQINSVSEHEYSFVSSQPLGRDQYKEMYLFVYRKDAVSVVDTYLYPDPEDVFSREPFVVKFSAPGTGERAPPLPSRRALTPPPLPAAAQNLVLIPLHAAPHQAVAEIDALYDVYLDVIDKWGTDDMLFLGDFNADCSYVRAQDWAAIRLRSSEVFKWLIPDSADTTVGNSDCAYDRIVACGARLRRSLKPQSATVHDFQEEFGLDQTQALAISDHFPVEVTLKFHR
MCF7; [6]
  percentage of EdU-negative: 25.9 ± 0.85%
MCF7; [7]
  percentage of EdU-negative: 23.9 ± 1.7%
hTERT-HMEC; [6]
  percentage of EdU-negative: 4.97 ± 0.32%
hTERT-HMEC; [7]
  percentage of EdU-negative: 5.04 ± 0.098%

## MSILFYVIFLAYLRGIQGNNMDQRSLPEDSLNSLIIKLIQADILKNKLSKQMVDVKENYQSTLPKAEAPREPERGGPAKSAFQPVIAMDTELLRQQRRYNSPRVLLSDSTPLEPPPLYLMEDYVGSPVVANRTSRRKRYAEHKSHRGEYSVCDSESLWVTDKSSAIDIRGHQVTVLGEIKTGNSPVKQYFYETRCKEARPVKNGCRGIDDKHWNSQCKTSQTYVRALTSENNKLVGWRWIRIDTSCVCALSRKIGRT
MCF7; [8]
  percentage of EdU-negative: 25.37 ± 0.049%
MCF7; [9]
  percentage of EdU-negative: 27.3 ± 1.8%
hTERT-HMEC; [8]
  percentage of EdU-negative: 4.75 ± 0.28%
hTERT-HMEC; [9]
  percentage of EdU-negative: 6.72 ± 0.33%

## MNPTLGLAIFLAVLLTVKGLLKPSFSPRNYKALSEVQGWKQRMAAKELARQNMDLGFKLLKKLAFYNPGRNIFLSPLSISTAFSMLCLGAQDSTLDEIKQGFNFRKMPEKDLHEGFHYIIHELTQKTQDLKLSIGNTLFIDQRLQPQRKFLEDAKNFYSAETILTNFQNLEMAQKQINDFISQKTHGKINNLIENIDPGTVMLLANYIFFRARWKHEFDPNVTKEEDFFLEKNSSVKVPMMFRSGIYQVGYDDKLSCTILEIPYQKNITAIFILPDEGKLKHLEKGLQVDTFSRWKTLLSRRVVDVSVPRLHMTGTFDLKKTLSYIGVSKIFEEHGDLTKIAPHRSLKVGEAVHKAELKMDERGTEGAAGTGAQTLPMETPLVVKIDKPYLLLIYSEKIPSVLFLGKIVNPIGK [Q8IW75]
MCF7; [10]
  percentage of EdU-negative: 26.6 ± 0.27%
MCF7; [11]
  percentage of EdU-negative: 29.1 ± 1.5%
hTERT-HMEC; [10]
  percentage of EdU-negative: 6.15 ± 0.62%
hTERT-HMEC; [11]
  percentage of EdU-negative: 15.6 ± 0.67%

## MKYLRHRRPNATLILAIGAFTLLLFSLLVSPPTCKVQEQPPAIPEALAWPTPPTRPAPAPCHANTSMVTHPDFATQPQHVQNFLLYRHCRHFPLLQDVPPSKCAQPVFLLLVIKSSPSNYVRRELLRRTWGRERKVRGLQLRLLFLVGTASNPHEARKVNRLLELEAQTHGDILQWDFHDSFFNLTLKQVLFLQWQETRCANASFVLNGDDDVFAHTDNMVFYLQDHDPGRHLFVGQLIQNVGPIRAFWSKYYVPEVVTQNERYPPYCGGGGFLLSRFTAAALRRAAHVLDIFPIDDVFLGMCLELEGLKPASHSGIRTSGVRAPSQRLSSFDPCFYRDLLLVHRFLPYEMLLMWDALNQPNLTCGNQTQIY [Q9Y2A9]
MCF7; [5]
  percentage of EdU-negative: 25.7 ± 2%
MCF7; protein concentration 0.225 µM
  percentage of EdU-negative: 30.2 ± 0.85%
hTERT-HMEC; [5]
  percentage of EdU-negative: 4.326 ± 0.034%
hTERT-HMEC; protein concentration 0.225 µM
  percentage of EdU-negative: 7.879 ± 0.065%

## MLKALFLTMLTLALVKSQDTEETITYTQCTDGYEWDPVRQQCKDIDECDIVPDACKGGMKCVNHYGGYLCLPKTAQIIVNNEQPQQETQPAEGTSGATTGVVAASSMATSGVLPGGGFVASAAAVAGPEMQTGRNNFVIRRNPADPQRIPSNPSHRIQCAAGYEQSEHNVCQDIDECTAGTHNCRADQVCINLRGSFACQCPPGYQKRGEQCVDIDECTIPPYCHQRCVNTPGSFYCQCSPGFQLAANNYTCVDINECDASNQCAQQCYNILGSFICQCNQGYELSSDRLNCEDIDECRTSSYLCQYQCVNEPGKFSCMCPQGYQVVRSRTCQDINECETTNECREDEMCWNYHGGFRCYPRNPCQDPYILTPENRCVCPVSNAMCRELPQSIVYKYMSIRSDRSVPSDIFQIQATTIYANTINTFRIKSGNENGEFYLRQTSPVSAMLVLVKSLSGPREHIVDLEMLTVSSIGTFRTSSVLRLTIIVGPFSF
MCF7; [12]
  percentage of EdU-negative: 28 ± 2.2%
MCF7; [13]
  percentage of EdU-negative: 29.1 ± 1.9%
hTERT-HMEC; [12]
  percentage of EdU-negative: 4.75 ± 0.46%
hTERT-HMEC; [13]
  percentage of EdU-negative: 15.7 ± 1.1%

Source: the supplement of paper PMC11316812
